Source: the DeepSol protein solubility set

Test: soluble on expression in E. coli; label from the status in PepcDB or PDB records

| Sequence | soluble on expression in E. coli |
| --- | --- |
| SYPSLFAPLDLGFTTLKNRVLMGSMHTGLEEYPDGAERLAAFYAERARHGVALIVSGGIAPDLTGVGMEGGAMLNDASQIPHHRTITEAVHQEGGKIALQILHTGRYSYQPHLVAPSALQAPINRFVPHELSHEEILQLIDNFARCAQLAREAGYDGVEVMGSEGYLINEFLTLRTNQRSDQWGGDYRNRMRFAVEVVRAVRERVGNDFIIIYRLSMLDLVEDGGTFAETVELAQAIEAAGATIINTGIGWHEARIPTIATPVPRGAFSWVTRKLKGHVSLPLVTTNRINDPQVADDILSRGDADMVSMARPFLADAELLSKAQSGRADEINTCIGCNQACLDQIFVGKVTSCLVNPRACHETKMPILPAVQKKNLAVVGAGPAGLAFAINAAARGHQVTLFDAHSEIGGQFNIAKQIPGKEEFYETLRYYRRMIEVTGVTLKLNHTVTADQLQAFDETILASGIVPRTPPIDGIDHPKVLSYLDVLRDKAPVGNKVAIIGCGGIGFDTAMYLSQPGESTSQNIAGFCNEWGIDSSLQQAGGLSPQGMQIPRSPRQIVMLQRKASKPGQGLGKTTGWIHRTTLLSRGVKMIPGVSYQKIDDDGLHVVINGETQVLAVDNVVICAGQEPNRALAQPLIDSGKTVHLIGGCDVAMELDARRAIAQGTRLALEI | soluble |
| SEACVSVTSSILSSMDPTVDPCHDFFSYACGGWIKANPVPDGHSRWGTFSNLWEHNQAIIKHLLENSTASVSEAERKAQVYYRACMNETRIEELRAKPLMELIERLGGWNITGPWAKDNFQDTLQVVTAHYRTSPFFSVYVSADSKNSNSNVIQVDQSGLGLPSRDYYLNKTENEKVLTGYLNYMVQLGKLLGGGDEEAIRPQMQQILDFETALANITIPQEKRRDEELIYHKVTAAELQTLAPAINWLPFLNTIFYPVEINESEPIVVYDKEYLEQISTLINTTDRCLLNNYMIWNLVRKTSSFLDQRFQDADEKFMEVMYGTKKTSLPRWKFCVSDTENNLGFALGPMFVKATFAEDSKSIATEIILEIKKAFEESLSTLKWMDEETRKSAKEKADAIYNMIGYPNFIMDPKELDKVFNDYTAVPDLYFENAMRFFNFSWRVTADQLRKAPNRDQWSMTPPMVNAYYSPTKNEIVFPAGILQAPFYTRSSPKALNFGGIGVVVGHELTHAFDDQGREYDKDGNLRPWWKNSSVEAFKRQTECMVEQYSNYSVNGEPVNGRHTLGENIADNGGLKAAYRAYQNWVKKNGAEHSLPTLGLTNNQLFFLGFAQVWCSVRTPESSHEGLITDPHSPSRFRVIGSLSNSKEFSEHFRCPPGSPMNPPHKCEVW | soluble |
| MYPNQQFMRGKVRDLPDSGVIYLNRIKPIAQEFQQETTAEVEVSVQNIPRHGKSPSSFEKYNSVEERSPTRLPMITTSTTAPKILIEKKVNQQKQEFQKSKQSQLSVPEEAELDRLLDDLLKSDNIPKVILDFFFKMKMIQNFQKTLQLAKIGRRSSKRHVGAYKPKVISFDGTARVNKQHARAHASPTSIGLNPIKTYAYGSSSSQNRGPDFDPWERMGQKALCNLLGTLLLELERIWEHMGGFIDTESPAFFVNETLAQQHIACVFCNKLFNMPQTWEKAQNALNLAGCSNLGGAKKACNGIVNNANLTESFPNMLPHNVQLKDLACKKYCKEQ | soluble |
| MSDSDAMTDPNAVSYSNAIVVLCTAPDEASAQNLAAQVLGEKLAACVTLLPGATSLYYWEGKLEQEYEVQLLFKSNTDHQQALLTYIKQHHPYQTPELLVLPVRDGDKDYLSWLNASLL | not soluble |
| MANIDYMMDPGWKYLRQAQDEALKEQAARRFDNKTHAWVPDAAEGFVTAAVAVQEGDNLTFTMPDGTPKKLTRAEVQEINPAKFEKTEDMSNLTFLNEASVLHNLRQRYYSMMIYTYSGLFCVFINPYKMLPIYTDSVASMYVNKRRAEMPPHLFAVSDEAFRNMMSDKENQSMLITGESGAGKTENTKKVIAYFAMIGSGNKDQKSESSLENQVVQANPAIEAFGNGATTRNYNSSRYGKFIRIHFDRKGKLVGGDIEHYLLEKSRVIKQAPGERSYHIFYQIMTQKALRERYGLSDNIRDYKFVSQAEITVPGMNDTEEWQITDGAFNVMGFSEREKDDLYKLCSAIMHIGNSTFKQKPRDEQAEVDDMTSPTAACKLFGINTDQFLNALTRPRIKVGMEWVNKGQNVQQVDWAVGALSKAIYARMFNWLIKRVNKTLQANSDEMVYYIGVLDIAGFEIFDRNSFEQLWINFVNEKLQQFFNHHMFVLEQEEYQREGIEWTFIDFGLDLQSCIELIEKPLGIVSMLDEECIVPKASDMTYVDKLLTQHLGKHPNFQKAKPPKGKQAEAHFSIMHYAGTVRYNAEQWLDKNKDPLNDSAVAILKTSDKEGVLYQLWEEYQTDVDREESEKRGKAQAKKKGKSASFLTVSTMYRESLTSLMTMLHTTHPHFIRCIIPNEKKTSGLIDAPLVLNQLTCNGVLEGIRICRKGFPNRMMFADFRFRYAILAADEASDKDAAKASKAMLRKLSKNNQLNVDTFKVGTTKVFFRAGMLARLEELRDEALSAVILKFQCSLRHYLAQLEYKRRLDREDAYPIIQENIRAWIKLRSWPWYRLFSRLKPMLKGMKSNAEIEALEKKCKELEENHKREEEARKKYADELRAKIDQYEETKAAHERDRMLLDKRNKEIEELNRNLKAESESNYENAKKASELERLREKEKKEWDEKERRMQMEAENEANQHKTQTEKLKDQISTLQTDFEKVSAQRKAQEQMNAELVDEVASFKQKAERAEEQKKKLVEDLDSLDDKLAAEKRANNEHVKHNKKLEGQLKATQTQLTLALKEKHEFDVDCKRRESEIGELKLKAQGDANLISKLQAMLRKCISRIEELEEDLLEERKLRMKAERQFNELRSEYEVLQEQMAEASGQLTAEAHINKVRAEEVSNLRRDLQKRNLNHEAYISDLCNMQYATVNNLRNLSQQSATLESEALRILDHRRALSKQPLPRVYVEDPDSDSD | not soluble |
| MGSDKIHHHHHHMSLSYKEMHQTLMEELRLYHYPVAVKFFFDDEELATFKEKAEFYVPVKPMTFCQWELAARMKGQTVLATREDLGCSNALVSFGWKDIDDNEIKSHMKYVRSIEQAEKFVRSKPRLDMGSVKAIAVGPLGDAIVAPSVVHFYCDNMQSYHLAVDYMAAMDQHPLRTNVTMNSSACGGTVFSFLEKTANMLPACSGSYNAGKTERGEINFMIPGEHIEATVERLLERKRNLGSSAITRPGDGFPGADVCKNCPLIIFKKEK | not soluble |
| MAHHHHHHMKTCKTGIQKVRDVSEATVLVLDWFERRNKPATPQSLADALGSRVAKSLLQKILEQLHAEEKLHVKDMKKIRFYYRRVLPLSDADGATTTKQHSEPEDDPAATTGERGNAVNVPEVCGGAETCAESPADAHAALLHAVAISAVQLSERSLRLTRWRGWPSSTERADKYADLAREVCELRNSLERLQSRHAGESAEAHGGGSWTSRVRRAVCRYRRARRHWVQRKDWAMCLLEATAGDAHTPLQAAALLGCTTDAEAGVSFEDTAVALPAPLMRELNLSQR | not soluble |
| MSLTFSILAHDPETGAIGGAAATGSLCVGGWVLRGDLNAGMSASQGAAPSTFWGEEVLQHLRDGSHPEDAVNHVTSQDSGRAYRQLAAMDLLGNAAAFTGSENQDIKGSVTFASGIASGNMLGDNSVLGAMTEAFVASDLTFERRLLAALIAAEGAGSDFRGLLSAAMLVLHPDRPPVTLRIDYHPDNPIGALEQLYQKATTGDYADWARQVPVLSDKERILDEGHHHHHH | soluble |
| SKDFMISAKGTFTYAKNQYMEIDEPDYEYAYMSQVGRPLNQYKGYIALGLFKDQEEIDNSPKQILTGVVQPGDIKYADLNNDGKIDGNDQTYIGNPELPQISYGLGVSIQYKKWDASIFFQGVGKRSIMLSDIHPFGGESYGVMQFVADNHWTEANPNPEAMYPRLTNGKNNNNNPNSTYWLRDGSYIRLKNVELGYSYKFLRAYISGQNLLTFSKFKLWDPELYTSNGLKYPTQIMGSIGLQFTF | not soluble |
| MPITKFIWSPSGTGLSEHAWATSESTGAAWVGNDAAAHISLLRSTVAEELAVPLEQAGMDAATMQRAVDTAIDTWGLRGQAEQDPMTLSSGQTRRLAIAGALITRPEALVLDCPTDGLDTEAIEILHRIVDSFPGNVTVYDRMHTALATTAAEQLRLTSSGDLVPEPAPDPVDTVSARFTPIDLSTDHGPLLCAKNLRIPRGATTVGPISCEVSPSSVTHLAGLNGTGKTSFFLAALGLVASTGTLQVADGVTMGWAPADMDSALSRRTVATELTVGATPELAQAAIEFMGLEQWADTHPLDVPAAWRRFVLIAAALVRGPHLLLLDEPTVNLDAPNHGHLSLLMHRYCAGEFHRMAGLDLGGHHPAVLFTCHDARYAQAVSTAEIRI | not soluble |
| MDHYLVPYNQRANHSKPIPPFLLDLDSQSVPDALKKQTNDYYILYNPALPREIDVELHKSLDHTSVVCCVKFSNDGEYLATGCNKTTQVYRVSDGSLVARLSDDSAANKDPENLNTSSSPSSDLYIRSVCFSPDGKFLATGAEDRLIRIWDIENRKIVMILQGHEQDIYSLDYFPSGDKLVSGSGDRTVRIWDLRTGQCSLTLSIEDGVTTVAVSPGDGKYIAAGSLDRAVRVWDSETGFLVERLDSENESGTGHKDSVYSVVFTRDGQSVVSGSLDRSVKLWNLQNANNKSDSKTPNSGTCEVTYIGHKDFVLSVATTQNDEYILSGSKDRGVLFWDKKSGNPLLMLQGHRNSVISVAVANGSSLGPEYNVFATGSGDCKARIWKYKKIAPN | soluble |
| MGSDKIHHHHHHMSIEQLADLTQPQRDRLAFVELRVRFIGEIRRQDLVSRFGIQSAAASRDLALYKELVPGNIDYDSKGKSYVLGPDFRPLFEFPPERVLSWLTQGFGDGEPMQLKAWVASESPSRLARPDLTVLASVTRAIHQGCPLAVEYHSISSGKANRQIVPFALIDDGQRWLVRAFDRESQQFRDFVITRIRNPQVLKGENPAPHEASDQDIQWTRILELDLVPHPNRPHPEISEMDYSMERGVWKMKLRAAMAGYILCKLRVDCSPTHKLNGSEHRLWLRNHLALYGVRSAVLAPGYESPEPVGQEQDGD | not soluble |
| GMEWQAEQAYNHLPPLPLDSKLAELAETLPILKACIPARAALAELKQAGELLPNQGLLINLLPLLEAQGSSEIENIVTTTDKLFQYAQEDSQADPMTKEALRYRTALYQCFTQLSNRPLCVTTALEICSTIKSVQMDVRKVPGTSLTNQATGEVIYTPPAGESVIRDLLSNWEAFLHNQDDVDPLIKMAMAHYQFEAIHPFIDGNGRTGRVLNILYLIDQQLLSAPILYLSRYIVAHKQDYYRLLLNVTTQQEWQPWIIFILNAVEQTAKWTTHKIAAARELIAHTTEYVRQQLPKIYSHELVQVIFEQPYCRIQNLVESGLAKRQTASVYLKQLCDIGVLEEVQSGKEKLFVHPKFVTLMTKDSNQFSRYAL | soluble |
| MAHHHHHHMKSTRTTAKVRPACLPYSTTMRSSRQTSSLLSRVAHSVGAVVAKANLLRQSPSREAHRPSGPAEGLRPSSSSAKPPVLASGDILRDLAFFTQASEVGFFSTHPSLCAQVFGVVPGDVFEVGGGCAVTSSSVVDVDAGSRMAREAIVVVGARSGKLWVWAYGDEAARVLRVPSSTTSAMLSSAVEVRAAIVEHYQLRQLVHPSRRQCSAGGGKAMEQDAQVEFARTVCEAFQSLCARAHEEVQRLYTPDQLAFLQRAPDLYAAATKRVDRVASSLDDASPTAGVNSEPQRQQPNHPPDGSSSFLPRSIYSDIARHAQHAAAVVLLAPRVSLVTGAVGWVGEGDVVLADSLVSQGGCAEASLSASVVI | soluble |
| MGSDKIHHHHHHMITEELQKLYQEYTGVPVENITELPSSGSNRRYFRLTGAKTLIGVCGTSVEENDAFLYMAAHFRKSGLPVPEVHIVSENKSYYLQEDLGDTLLFHAIEKGRATSVFSEEEKELLRKTVRLLPAIQFAGADGFDFSRCYPQPEFNQRSILWDLNYFKYCFLKATGMEFQEDKLEDDFQKMSDVLLRSSSATFMYRDFQSRNVMIKDGEPWFIDFQGGRKGPFYYDVASFLWQAKAKYPDSLRQELLKEYIDALRKYQPIDEPYFYSQLRHFVLFRTLQVLGAYGFRGYFEKKPHFIQSVPFAIQNLRDLLKEAYPEYPYLCNVLRELTELKQFTDDLKKRQLTVKVMSFAYKKGIPDDPTGNGGGYVFDCRAVNNPGKYERYKPFTGLDEPVISFLEEDGEILRFLDSVYALVDASVKRYMERGFSNLSVCFGCTGGQHRSVYSAQHLAEHLNRKFGVKVELVHREQNIERTFEATV | not soluble |
